Source: patent US20240190999A1

Columns and labels:
[1] = molecular target: biotinylated cynomolgus 4-1BB (bio.c4-1BB) (cynomolgus monkey) (UniProt A9YYE7); assay: SPR (ProteOn XPR36), bio.c4-1BB on NLC chip, MpA analyte; mean of triplicate
[2] = molecular target: biotinylated human 4-1BB-Fc (bio.h4-1BB-Fc) (human) (UniProt Q07011); assay: SPR (ProteOn XPR36), sequential injections; 100 nM MpA on 360 RU bio.h4-1BB-Fc on NLC chip
[3] = molecular target: biotinylated cynomolgus 4-1BB (bio.c4-1BB) (cynomolgus monkey) (UniProt A9YYE7); assay: SPR (ProteOn XPR36), bio.c4-1BB on NLC chip, MpA analyte; mean of triplicate; apparent affinity (bivalent)
[4] = molecular target: biotinylated cynomolgus 4-1BB (bio.c4-1BB) (cynomolgus monkey) (UniProt A9YYE7); assay: SPR (ProteOn XPR36); end of the group's range, tied to #44 by Table 15
[5] = molecular target: biotinylated cynomolgus 4-1BB (bio.c4-1BB) (cynomolgus monkey) (UniProt A9YYE7); assay: SPR (ProteOn XPR36), biotinylated c4-1BB immobilised on GLC chip, construct as analyte
[6] = molecular target: biotinylated cynomolgus 4-1BB (bio.c4-1BB) (cynomolgus monkey) (UniProt A9YYE7); assay: SPR (ProteOn XPR36); end of the group's range, tied to #47 by Table 15
[7] = molecular target: biotinylated cynomolgus 4-1BB (bio.c4-1BB) (cynomolgus monkey) (UniProt A9YYE7); assay: SPR (ProteOn XPR36); told of the group, largest difference is that of #47 by Table 15

Sequence of biotinylated cynomolgus 4-1BB (bio.c4-1BB) (cynomolgus monkey) (A9YYE7 entry or part of it): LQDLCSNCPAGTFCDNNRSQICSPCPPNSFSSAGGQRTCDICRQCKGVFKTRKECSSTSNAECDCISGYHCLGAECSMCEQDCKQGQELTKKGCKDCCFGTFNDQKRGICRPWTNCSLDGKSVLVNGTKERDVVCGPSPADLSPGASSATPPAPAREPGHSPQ
Sequence of biotinylated human 4-1BB-Fc (bio.h4-1BB-Fc) (human) (Q07011 24-186 limits assumed): as the sequence (A9YYE7 entry or part of it) above, with L4P, S19N, K50R, I66T, S67P, Y69F, E75G, A149V counted along it

B1: Multispecific binding protein A (MpA) (designed binder)
chain: GSDLGKKLLEAARAGQDDEVRELLKAGADVNAKDYFSHTPLHLAARNGHLKIVEVLLKAGADVNAKDFAGKTPLHLAAADGHLEIVEVLLKAGADVNAQDIFGKTPADIAADAGHEDIAEVLQKAAGSPTPTPTTPTPTPTTPTPTPTGSDLGKKLLEAARAGQDDEVRELLKAGADVNAKDVLGWTPLHLAAFEGHLEIVEVLLKAGADVNAKDKKGWTPLQLAARTGHLEIVEVLLKAGADVNAKDHIGATPLHLAAWQGHPEIVEVLLKAGADVNAQDKSGKTPADLAADAGHEDIAEVLQKAAGSPTPTPTTPTPTPTTPTPTPTGSDLGQKLLKAAQEGQDDEVRELLKAGADVNAKDLRGITPLHVAAWQGHLEIVEVLLKAGADVNAKDSKGETPLHLAAFRGHLEIVEVLLKAGADVNAQDQQGETPADLAALAGHVDIAEVLQKAAGSPTPTPTTPTPTPTTPTPTPTGSDLGQKLLKAAQEGQDDEVRELLKAGADVNAKDLRGITPLHVAAWQGHLEIVEVLLKAGADVNAKDSKGETPLHLAAFRGHLEIVEVLLKAGADVNAQDQQGETPADLAALAGHVDIAEVLQKAAGSPTPTPTTPTPTPTTPTPTPTGSDLGKKLLEAARAGQDDEVRELLKAGADVNAKDYFSHTPLHLAARNGHLKIVEVLLKAGADVNAKDFAGKTPLHLAAADGHLEIVEVLLKAGADVNAQDIFGKTPADIAADAGHEDIAEVLQKAA
- koff [1]: 2.7e-05 s⁻¹
- kon [1]: 2.1e+06 M⁻¹ s⁻¹
- Binding stoichiometry [2]: 0.7
- Kd [3]: 0.014 nM

B2: bispecific construct #44 (designed binder)
chain: MRGSHHHHHHGSDLGEKLLVAALYGQDDEVRILLAAGADVNAKDQWGLTPLHKAALQGHLEIVEVLLKAGADVNAKDERGHTPLHWAARFGHLEIVEVLLKAGADVNAQDQKGYTPADLAALWGHEDIAEVLQKAAGSPTPTPTTPTPTPTTPTPTPTGSDLGQKLLKAAQEGQDDEVRELLKAGADVNAKDLRGITPLHVAAWQGHLEIVEVLLKAGADVNAKDSKGETPLHLAAFRGHLEIVEVLLKAGADVNAQDQQGETPADLAALAGHVDIAEVLQKLN
- Kd [4]: 1.1 to 2.9 nM
- Kd [5]: 1.12 nM

B3: bispecific construct #47 (designed binder)
chain: MRGSHHHHHHGSDLGEKLLVAALYGQDDEVRILLAAGADVNAKDQWGLTPLHKAALQGHLEIVEVLLKAGADVNAKDERGHTPLHWAARFGHLEIVEVLLKAGADVNAQDQKGYTPADLAALWGHEDIAEVLQKAAGSPTPTPTTPTPTPTTPTPTPTGSDLGKKLLEAARAGQDDEVRELLKAGADVNAKDTYGETPLHLAAWKGHLEIVEVLLKAGADVNAKDSIGITPLHVAAHHGHLEIVEVLLKAGADVNAKDKWGRTPLHLAALLGHLEIAEVLLKAGADVNAQDKSGKTPADLAADAGHDDIAEVLQKLN
- Kd [6]: 1.1 to 2.9 nM
- Kd [5]: 2.9 nM
- fold difference in binding affinity as compared to human 4-1BB [7]: < 4 fold

B4: bispecific construct #49 (designed binder)
chain: MRGSHHHHHHGSDLGEKLLVAALYGQDDEVRILLAAGADVNAKDQWGLTPLHKAALQGHLEIVEVLLKAGADVNAKDERGHTPLHWAARFGHLEIVEVLLKAGADVNAQDQKGYTPADLAALWGHEDIAEVLQKAAGSPTPTPTTPTPTPTTPTPTPTGSDLGKKLLVAANVGQDDEVRILLAAGADVNAKDYHGYTPLHHAATYGHLEIVEVLLKAGADVNAKDQTGLTPLHLAAAKGHLEIVEVLLKAGADVNAQDHHGYTPADLAAFVGHEDIAVVLQKLN
- Kd [5]: 1.48 nM
